We go through seven molecules from US20240279278A1, “NMU RECEPTOR 2 AGONISTS” (Boehringer Ingelheim International GmbH, priority 2023, published 2024).

Values after ≈ are worked out from the molar mass of the structure shown. Residues, ends and D or L forms follow the SMILES beside them.

One data set in a line: physchem. The class given is physicochemical. The following applies: pH 7.6. The protocol: Example 6: Solubility Determination
Peptides (as TFA-salts) were weighed out in a filter unit (Mini-UniPrep Syringeless Filter 0.45 μm, Whatman PVDF), and 0.1 M phosphate buffer at pH 6 to 8 was added to achieve 10 mg/mL final peptide concentration. The peptides were dissolved by shaking the filter units horizontally at 350 rpm for 2 hours at room temperature. Samples were then filtered to remove any insoluble particles. Controls were prepared by weighing out the corresponding peptide solid material and dissolving it in an appropriate vehicle (e.g. buffer or DMSO) to a final concentration of 1 mg/mL. Both, the control and sample were analyzed by reversed phase chromatography. The area under the peak of the sample was compared to the control and the solubility was calculated based on that ratio. The pH was measured and recorded for each sample.

Data set [1] addresses T1, human NMUR2 receptor (Homo sapiens, UniProt Q9GZQ4). Nature of the data set: IP1 Gq HTRF assay, activation of human NMUR2 in buffer. Also on record: expressed in transfected cells; host or cells: CHO-K1. The note with it: CHO-K1 cells expressing human NMUR2, stimulation buffer with 0.1% BSA; read-out: EC50 (hNMUR2) buffer. In kind it is cell-based. The procedure, abridged:
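CHO-K1 cells stably expressing human NMUR1 or NMUR2, seeded 24 h before assay, stimulated with peptide agonists (8-point dose-response, 1% DMSO final) in HEPES/HBSS buffer with 50 mM LiCl and 0.1% BSA, pH 7.4, 1 h at 37 °C. IP1 accumulation read by HTRF competition (665/620 nm); EC50 from 4-parameter sigmoidal fit.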

Data set [2] addresses T1, human NMUR2 receptor. Put plainly: IP1 Gq HTRF assay, activation of human NMUR2 in human plasma. The note with it: CHO-K1 cells expressing human NMUR2, 100% human plasma; read-out: EC50 (hNMUR2) human plasma. Further details: expressed in transfected cells; host or cells: CHO-K1. The class given is cell-based. The procedure, abridged:
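CHO-K1 cells stably expressing human NMUR2 exposed to peptide agonists (8-point dose-response) in 100% human plasma with 50 mM LiCl, 1% DMSO, for 1 h at 37° C. IP1 accumulation read by HTRF competition (665/620 nm ratio). EC50 from 4-parameter sigmoidal fit.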
For orientation: TR-FRET usually uses a lanthanide donor and a delayed reading to cut background.

In data set [3] the target is T2, human neuromedin U receptor 1 (human, UniProt Q9HB89 24-426).
T2 sequence (looked up): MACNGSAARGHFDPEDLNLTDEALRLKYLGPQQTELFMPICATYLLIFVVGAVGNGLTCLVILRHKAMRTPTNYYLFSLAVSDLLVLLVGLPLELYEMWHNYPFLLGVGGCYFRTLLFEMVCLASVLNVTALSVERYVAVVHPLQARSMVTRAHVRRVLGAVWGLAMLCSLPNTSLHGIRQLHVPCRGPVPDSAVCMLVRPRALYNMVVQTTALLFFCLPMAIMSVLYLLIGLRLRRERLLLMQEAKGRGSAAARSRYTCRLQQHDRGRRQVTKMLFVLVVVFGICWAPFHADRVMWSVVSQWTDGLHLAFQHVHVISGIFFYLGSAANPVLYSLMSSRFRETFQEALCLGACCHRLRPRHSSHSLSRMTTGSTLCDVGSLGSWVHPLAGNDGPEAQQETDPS
Put plainly: cell-based or functional assay.

T1 sequence (Q9GZQ4 whole entry): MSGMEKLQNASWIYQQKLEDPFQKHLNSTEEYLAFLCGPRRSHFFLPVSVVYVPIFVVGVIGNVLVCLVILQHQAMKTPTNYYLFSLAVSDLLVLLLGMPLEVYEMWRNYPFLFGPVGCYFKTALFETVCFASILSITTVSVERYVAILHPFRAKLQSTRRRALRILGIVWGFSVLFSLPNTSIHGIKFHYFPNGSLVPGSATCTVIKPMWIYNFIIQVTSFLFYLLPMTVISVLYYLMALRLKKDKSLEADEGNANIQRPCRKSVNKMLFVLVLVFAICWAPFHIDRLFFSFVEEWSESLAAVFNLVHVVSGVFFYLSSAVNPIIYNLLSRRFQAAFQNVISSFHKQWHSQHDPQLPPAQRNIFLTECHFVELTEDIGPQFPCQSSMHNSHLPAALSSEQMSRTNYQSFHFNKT

By solubility is commonly meant how much of the substance goes into solution per volume. A high value points to much dissolved substance. What is called EC50 is the concentration giving half of the maximal effect. Take `CCCC[C@H](NC(=O)[C@H](CC(C)C)N(C)C(=O)[C@H](Cc1ccccc1)NC(=O)[C@H](Cc1ccc(O)cc1)NC(=O)CN1CCN(CCNC(=O)CN(C)C(=O)CN(C)C(=O)CN(C)C(=O)CN(C)C(=O)CN(C)C(=O)CN(C)C(=O)CC[C@H](NC(=O)CC[C@H](NC(=O)CC[C@H](NC(=O)CCCCCCCCCCCCCCCCC(=O)O)C(=O)O)C(=O)O)C(=O)O)CC1)C(=O)N[C@@H](CCCNC(=N)N)C(=O)N1CCC[C@H]1C(=O)N[C@@H](CCCNC(=N)N)C(=O)NCC(N)=O` [Compound 68, C18DA-gGlu3-Sar6-AEPipAc-Tyr-Phe-NMeLeu-Nle-Arg-Pro-Arg-Gly-NH2] (HELM PEPTIDE1{[O=C(O)CCCCCCCCCCCCCCCCC(=O)[*:2]].[gGlu].[gGlu].[gGlu].[Sar].[Sar].[Sar].[Sar].[Sar].[Sar].[O=C(CN1CCN(CCN[*:1])CC1)[*:2]].Y.F.[meL].[Nle].R.P.R.G.[am]}$$$$V2.0): in the data set “physchem”, the concentration in solution (solubility at 2 h) was 900 µg/mL (≈ 389 µM). Besides, the results for the concentration giving a half-maximal response (EC50) at human NMUR2 receptor [1] and on human NMUR2 receptor [2] were 1.2 nM and 9.6 nM, respectively.

B1: C18DA-gGlu3-Sar12-AEPipAc-Tyr-Phe-NMeLeu-Nle-Arg-Pro-Arg-Gly-NH2 (peptide)
peptide: EEEXXXXXXXXXXXXXYFLXRPRG
HELM: PEPTIDE1{[O=C(O)CCCCCCCCCCCCCCCCC(=O)[*:2]].[gGlu].[gGlu].[gGlu].[Sar].[Sar].[Sar].[Sar].[Sar].[Sar].[Sar].[Sar].[Sar].[Sar].[Sar].[Sar].[O=C(CN1CCN(CCN[*:1])CC1)[*:2]].Y.F.[meL].[Nle].R.P.R.G.[am]}$$$$V2.0
SMILES: CCCC[C@H](NC(=O)[C@H](CC(C)C)N(C)C(=O)[C@H](Cc1ccccc1)NC(=O)[C@H](Cc1ccc(O)cc1)NC(=O)CN1CCN(CCNC(=O)CN(C)C(=O)CN(C)C(=O)CN(C)C(=O)CN(C)C(=O)CN(C)C(=O)CN(C)C(=O)CN(C)C(=O)CN(C)C(=O)CN(C)C(=O)CN(C)C(=O)CN(C)C(=O)CN(C)C(=O)CC[C@H](NC(=O)CC[C@H](NC(=O)CC[C@H](NC(=O)CCCCCCCCCCCCCCCCC(=O)O)C(=O)O)C(=O)O)C(=O)O)CC1)C(=O)N[C@@H](CCCNC(=N)N)C(=O)N1CCC[C@H]1C(=O)N[C@@H](CCCNC(=N)N)C(=O)NCC(N)=O
Turning to B1, the EC50 (hNMUR1) buffer in data set [3] stood at 200 nM.

B2: C18DA-gGlu3-Sar15-AEPipAc-Tyr-Phe-NMeLeu-Nle-Dbu-Pro-Arg-Gly-NH2 (peptide)
peptide: EEEXXXXXXXXXXXXXXXXYFLXXPRG
HELM: PEPTIDE1{[O=C(O)CCCCCCCCCCCCCCCCC(=O)[*:2]].[gGlu].[gGlu].[gGlu].[Sar].[Sar].[Sar].[Sar].[Sar].[Sar].[Sar].[Sar].[Sar].[Sar].[Sar].[Sar].[Sar].[Sar].[Sar].[O=C(CN1CCN(CCN[*:1])CC1)[*:2]].Y.F.[meL].[Nle].[Dab].P.R.G.[am]}$$$$V2.0
SMILES: CCCC[C@H](NC(=O)[C@H](CC(C)C)N(C)C(=O)[C@H](Cc1ccccc1)NC(=O)[C@H](Cc1ccc(O)cc1)NC(=O)CN1CCN(CCNC(=O)CN(C)C(=O)CN(C)C(=O)CN(C)C(=O)CN(C)C(=O)CN(C)C(=O)CN(C)C(=O)CN(C)C(=O)CN(C)C(=O)CN(C)C(=O)CN(C)C(=O)CN(C)C(=O)CN(C)C(=O)CN(C)C(=O)CN(C)C(=O)CN(C)C(=O)CC[C@H](NC(=O)CC[C@H](NC(=O)CC[C@H](NC(=O)CCCCCCCCCCCCCCCCC(=O)O)C(=O)O)C(=O)O)C(=O)O)CC1)C(=O)N[C@@H](CCN)C(=O)N1CCC[C@H]1C(=O)N[C@@H](CCCNC(=N)N)C(=O)NCC(N)=O
In turn, B2 gave an EC50 (hNMUR1) buffer in data set [3] above 1000 nM.

B3: C18DA-gGlu3-Sar9-AEPipAc-Tyr-Phe-NMeLeu-Nle-Dbu-Pro-Arg-Gly-NH2 (peptide)
peptide: EEEXXXXXXXXXXYFLXXPRG
HELM: PEPTIDE1{[O=C(O)CCCCCCCCCCCCCCCCC(=O)[*:2]].[gGlu].[gGlu].[gGlu].[Sar].[Sar].[Sar].[Sar].[Sar].[Sar].[Sar].[Sar].[Sar].[O=C(CN1CCN(CCN[*:1])CC1)[*:2]].Y.F.[meL].[Nle].[Dab].P.R.G.[am]}$$$$V2.0
SMILES: CCCC[C@H](NC(=O)[C@H](CC(C)C)N(C)C(=O)[C@H](Cc1ccccc1)NC(=O)[C@H](Cc1ccc(O)cc1)NC(=O)CN1CCN(CCNC(=O)CN(C)C(=O)CN(C)C(=O)CN(C)C(=O)CN(C)C(=O)CN(C)C(=O)CN(C)C(=O)CN(C)C(=O)CN(C)C(=O)CN(C)C(=O)CC[C@H](NC(=O)CC[C@H](NC(=O)CC[C@H](NC(=O)CCCCCCCCCCCCCCCCC(=O)O)C(=O)O)C(=O)O)C(=O)O)CC1)C(=O)N[C@@H](CCN)C(=O)N1CCC[C@H]1C(=O)N[C@@H](CCCNC(=N)N)C(=O)NCC(N)=O
B3: the EC50 (hNMUR1) buffer in data set [3] amounted to 1000 nM.

B4: C18DA-gGlu3-Sar12-AEPipAc-Tyr-Phe-NMeLeu-Nle-Dbu-Pro-Arg-Gly-NH2 (peptide)
peptide: EEEXXXXXXXXXXXXXYFLXXPRG
HELM: PEPTIDE1{[O=C(O)CCCCCCCCCCCCCCCCC(=O)[*:2]].[gGlu].[gGlu].[gGlu].[Sar].[Sar].[Sar].[Sar].[Sar].[Sar].[Sar].[Sar].[Sar].[Sar].[Sar].[Sar].[O=C(CN1CCN(CCN[*:1])CC1)[*:2]].Y.F.[meL].[Nle].[Dab].P.R.G.[am]}$$$$V2.0
SMILES: CCCC[C@H](NC(=O)[C@H](CC(C)C)N(C)C(=O)[C@H](Cc1ccccc1)NC(=O)[C@H](Cc1ccc(O)cc1)NC(=O)CN1CCN(CCNC(=O)CN(C)C(=O)CN(C)C(=O)CN(C)C(=O)CN(C)C(=O)CN(C)C(=O)CN(C)C(=O)CN(C)C(=O)CN(C)C(=O)CN(C)C(=O)CN(C)C(=O)CN(C)C(=O)CN(C)C(=O)CC[C@H](NC(=O)CC[C@H](NC(=O)CC[C@H](NC(=O)CCCCCCCCCCCCCCCCC(=O)O)C(=O)O)C(=O)O)C(=O)O)CC1)C(=O)N[C@@H](CCN)C(=O)N1CCC[C@H]1C(=O)N[C@@H](CCCNC(=N)N)C(=O)NCC(N)=O
In data set [3], B4 displayed an EC50 (hNMUR1) buffer of 1700 nM.

B5: C18DA-gGlu3-Sar9-AEPipAc-Tyr-Phe-NMeLeu-Nle-Dbu-NMeAla-Arg-Gly-NH2 (peptide)
peptide: EEEXXXXXXXXXXYFLXXARG
HELM: PEPTIDE1{[O=C(O)CCCCCCCCCCCCCCCCC(=O)[*:2]].[gGlu].[gGlu].[gGlu].[Sar].[Sar].[Sar].[Sar].[Sar].[Sar].[Sar].[Sar].[Sar].[O=C(CN1CCN(CCN[*:1])CC1)[*:2]].Y.F.[meL].[Nle].[Dab].[meA].R.G.[am]}$$$$V2.0
SMILES: CCCC[C@H](NC(=O)[C@H](CC(C)C)N(C)C(=O)[C@H](Cc1ccccc1)NC(=O)[C@H](Cc1ccc(O)cc1)NC(=O)CN1CCN(CCNC(=O)CN(C)C(=O)CN(C)C(=O)CN(C)C(=O)CN(C)C(=O)CN(C)C(=O)CN(C)C(=O)CN(C)C(=O)CN(C)C(=O)CN(C)C(=O)CC[C@H](NC(=O)CC[C@H](NC(=O)CC[C@H](NC(=O)CCCCCCCCCCCCCCCCC(=O)O)C(=O)O)C(=O)O)C(=O)O)CC1)C(=O)N[C@@H](CCN)C(=O)N(C)[C@@H](C)C(=O)N[C@@H](CCCNC(=N)N)C(=O)NCC(N)=O
In data set [3], B5 came in with an EC50 (hNMUR1) buffer above 1000 nM.

B6: C18DA-gGlu3-Sar9-AEPipAc-Tyr-Phe-NMeLeu-Nle-Orn-Pro-Arg-Gly-NH2 (peptide)
peptide: EEEXXXXXXXXXXYFLXXPRG
HELM: PEPTIDE1{[O=C(O)CCCCCCCCCCCCCCCCC(=O)[*:2]].[gGlu].[gGlu].[gGlu].[Sar].[Sar].[Sar].[Sar].[Sar].[Sar].[Sar].[Sar].[Sar].[O=C(CN1CCN(CCN[*:1])CC1)[*:2]].Y.F.[meL].[Nle].[Orn].P.R.G.[am]}$$$$V2.0
SMILES: CCCC[C@H](NC(=O)[C@H](CC(C)C)N(C)C(=O)[C@H](Cc1ccccc1)NC(=O)[C@H](Cc1ccc(O)cc1)NC(=O)CN1CCN(CCNC(=O)CN(C)C(=O)CN(C)C(=O)CN(C)C(=O)CN(C)C(=O)CN(C)C(=O)CN(C)C(=O)CN(C)C(=O)CN(C)C(=O)CN(C)C(=O)CC[C@H](NC(=O)CC[C@H](NC(=O)CC[C@H](NC(=O)CCCCCCCCCCCCCCCCC(=O)O)C(=O)O)C(=O)O)C(=O)O)CC1)C(=O)N[C@@H](CCCN)C(=O)N1CCC[C@H]1C(=O)N[C@@H](CCCNC(=N)N)C(=O)NCC(N)=O
Molecule B6 had an EC50 (hNMUR1) buffer in data set [3] of 770 nM.
